Source: patent US20160039904A1, “STABILIZED SINGLE HUMAN CD4 DOMAINS AND FUSION PROTEINS” (priority 2013, published 2016)

How the values were obtained:
Assay in all cases: cell-based or functional assay
[1] = target: HIV-1 Env of isolate CNE68 (HIV-1)
[2] = target: HIV-1 Env of isolate CNE49 (HIV-1)
[3] = target: HIV-1 Env of isolate CNE3 (HIV-1)
[4] = target: HIV-1 Env of isolate CNE59 (HIV-1)
[5] = target: HIV-1 Env of isolate AE03 (HIV-1)
[6] = target: HIV-1 Env of isolate CNE15 (HIV-1)
[7] = target: HIV-1 Env of isolate CNE23 (HIV-1)
[8] = target: HIV-1 Env of isolate CNE107 (HIV-1)
[9] = target: HIV-1 Env of isolate CNE53 (HIV-1)
[10] = target: HIV-1 Env of isolate CNE55 (HIV-1)
[11] = target: HIV-1 Env of isolate CH114 (HIV-1)
[12] = target: HIV-1 Env of isolate CNE58 (HIV-1)
[13] = target: HIV-1 Env of isolate CNE7 (HIV-1)
[14] = target: HIV-1 Env of isolate CNE14 (HIV-1)
[15] = target: HIV-1 Env of isolate CNE57 (HIV-1)
[16] = target: HIV-1 Env of isolate CH120 (HIV-1)
[17] = target: HIV-1 Env of isolate CNE66 (HIV-1)
[18] = target: HIV-1 Env of isolate CH91 (HIV-1)
[19] = target: HIV-1 Env of isolate CNE47 (HIV-1)
[20] = target: HIV-1 Env of isolate CNE1 (HIV-1)
[21] = target: HIV-1 Env of isolate GX2010.36 (HIV-1)
[22] = target: HIV-1 Env of isolate AE20 (HIV-1)
[23] = target: HIV-1 Env of isolate CNE64 (HIV-1)
[24] = target: HIV-1 Env of isolate CNE40 (HIV-1)
[25] = target: HIV-1 Env of isolate CNE5 (HIV-1)
[26] = target: HIV-1 Env of isolate CH70 (HIV-1)
[27] = target: HIV-1 Env of isolate CNE20 (HIV-1)
[28] = target: HIV-1 Env of isolate CNE17 (HIV-1)
[29] = target: HIV-1 Env of isolate CNE65 (HIV-1)
[30] = target: HIV-1 Env of isolate CNE11 (HIV-1)
[31] = target: HIV-1 Env of isolate CNE30 (HIV-1)
[32] = target: HIV-1 Env of isolate CNE16 (HIV-1)
[33] = target: HIV-1 Env of isolate CNE4 (HIV-1)
[34] = target: HIV-1 Env of isolate CH119 (HIV-1)
[35] = target: HIV-1 Env of isolate CNE9 (HIV-1)
[36] = target: HIV-1 Env of isolate CNE46 (HIV-1)
[37] = target: HIV-1 Env of isolate YN192.31 (HIV-1)
[38] = target: HIV-1 Env of isolate CH110 (HIV-1)
[39] = target: HIV-1 Env of isolate CH64 (HIV-1)
[40] = target: HIV-1 Env of isolate CNE6 (HIV-1)
[41] = target: HIV-1 Env of isolate CH117 (HIV-1)

With 4Dm2m (Fc fusion) as the substance, how does the neutralization IC50 [1] read?
The neutralization IC50 was 0.11 nM.

What about the neutralization IC90 [1] of the same substance?
The neutralization IC90 was 0.78 nM.

What about the neutralization IC50 [2] of the same substance?
Its neutralization IC50 is 0.05 nM.

And the neutralization IC90 [2]?
Its neutralization IC90 is 0.56 nM.

What about the neutralization IC50 [3] of the same substance?
The neutralization IC50 was 0.39 nM.

And the neutralization IC90 [3]?
Its neutralization IC90 is 2.8 nM.

And the neutralization IC50 [4]?
Its neutralization IC50 is 0.17 nM.

And the neutralization IC90 [4]?
The neutralization IC90 was 2.7 nM.

What about the neutralization IC50 [5] of the same substance?
The neutralization IC50 was 0.67 nM.

What about the neutralization IC90 [5] of the same substance?
Its neutralization IC90 is 12 nM.

And the neutralization IC50 [6]?
The neutralization IC50 was 0.29 nM.

And the neutralization IC90 [6]?
The neutralization IC90 was 2.6 nM.

What about the neutralization IC50 [7] of the same substance?
The neutralization IC50 was 0.49 nM.

And the neutralization IC90 [7]?
The neutralization IC90 was 4.9 nM.

And the neutralization IC50 [8]?
Its neutralization IC50 is 0.52 nM.

What about the neutralization IC90 [8] of the same substance?
The neutralization IC90 was 18 nM.

What about the neutralization IC50 [9] of the same substance?
The neutralization IC50 was 0.24 nM.

What about the neutralization IC90 [9] of the same substance?
Its neutralization IC90 is 5.5 nM.

What about the neutralization IC50 [10] of the same substance?
Its neutralization IC50 is 0.45 nM.

And the neutralization IC90 [10]?
Its neutralization IC90 is 10 nM.

And the neutralization IC50 [11]?
Its neutralization IC50 is 0.11 nM.

What about the neutralization IC90 [11] of the same substance?
The neutralization IC90 was 4 nM.

And the neutralization IC50 [12]?
Its neutralization IC50 is 2.1 nM.

And the neutralization IC90 [12]?
The neutralization IC90 was over 28 nM.

And the neutralization IC50 [13]?
Its neutralization IC50 is 0.18 nM.

What about the neutralization IC90 [13] of the same substance?
The neutralization IC90 was 1.8 nM.

And the neutralization IC50 [14]?
Its neutralization IC50 is 0.17 nM.

And the neutralization IC90 [14]?
The neutralization IC90 was 2.4 nM.

And the neutralization IC50 [15]?
Its neutralization IC50 is 1.2 nM.

What about the neutralization IC90 [15] of the same substance?
The neutralization IC90 was 19 nM.

What about the neutralization IC50 [16] of the same substance?
The neutralization IC50 was 0.33 nM.

What about the neutralization IC90 [16] of the same substance?
The neutralization IC90 was 6.6 nM.

What about the neutralization IC50 [17] of the same substance?
The neutralization IC50 was 0.17 nM.

And the neutralization IC90 [17]?
Its neutralization IC90 is 7.7 nM.

What about the neutralization IC50 [18] of the same substance?
Its neutralization IC50 is 0.39 nM.

What about the neutralization IC90 [18] of the same substance?
Its neutralization IC90 is 10 nM.

What about the neutralization IC50 [19] of the same substance?
The neutralization IC50 was 0.11 nM.

What about the neutralization IC90 [19] of the same substance?
Its neutralization IC90 is 2.8 nM.

What about the neutralization IC50 [20] of the same substance?
The neutralization IC50 was 0.11 nM.

And the neutralization IC90 [20]?
The neutralization IC90 was 0.61 nM.

And the neutralization IC50 [21]?
Its neutralization IC50 is 0.11 nM.

And the neutralization IC90 [21]?
Its neutralization IC90 is 18 nM.

And the neutralization IC50 [22]?
The neutralization IC50 was 0.72 nM.

What about the neutralization IC90 [22] of the same substance?
The neutralization IC90 was 5.8 nM.

What about the neutralization IC50 [23] of the same substance?
The neutralization IC50 was 0.56 nM.

And the neutralization IC90 [23]?
Its neutralization IC90 is 3.2 nM.

What about the neutralization IC50 [24] of the same substance?
The neutralization IC50 was 0.01 nM.

What about the neutralization IC90 [24] of the same substance?
The neutralization IC90 was 0.11 nM.

What about the neutralization IC50 [25] of the same substance?
Its neutralization IC50 is 0.67 nM.

And the neutralization IC90 [25]?
Its neutralization IC90 is 8.7 nM.

What about the neutralization IC50 [26] of the same substance?
The neutralization IC50 was 0.11 nM.

What about the neutralization IC90 [26] of the same substance?
The neutralization IC90 was 1.2 nM.

And the neutralization IC50 [27]?
Its neutralization IC50 is 0.05 nM.

And the neutralization IC90 [27]?
The neutralization IC90 was 5.3 nM.

And the neutralization IC50 [28]?
Its neutralization IC50 is 0.11 nM.

And the neutralization IC90 [28]?
The neutralization IC90 was 2.4 nM.

And the neutralization IC50 [29]?
The neutralization IC50 was 0.28 nM.

What about the neutralization IC90 [29] of the same substance?
The neutralization IC90 was 3.3 nM.

What about the neutralization IC50 [30] of the same substance?
Its neutralization IC50 is 0.33 nM.

And the neutralization IC90 [30]?
Its neutralization IC90 is 2.6 nM.

What about the neutralization IC50 [31] of the same substance?
Its neutralization IC50 is 0.07 nM.

And the neutralization IC90 [31]?
Its neutralization IC90 is 0.44 nM.

And the neutralization IC50 [32]?
Its neutralization IC50 is 0.08 nM.

And the neutralization IC90 [32]?
Its neutralization IC90 is 1.2 nM.

What about the neutralization IC50 [33] of the same substance?
Its neutralization IC50 is 0.11 nM.

And the neutralization IC90 [33]?
Its neutralization IC90 is 2.4 nM.

What about the neutralization IC50 [34] of the same substance?
Its neutralization IC50 is 0.17 nM.

What about the neutralization IC90 [34] of the same substance?
Its neutralization IC90 is 3.4 nM.

What about the neutralization IC50 [35] of the same substance?
Its neutralization IC50 is 0.22 nM.

And the neutralization IC90 [35]?
The neutralization IC90 was 3.2 nM.

What about the neutralization IC50 [36] of the same substance?
Its neutralization IC50 is 0.27 nM.

What about the neutralization IC90 [36] of the same substance?
Its neutralization IC90 is 9.4 nM.

And the neutralization IC50 [37]?
Its neutralization IC50 is 0.89 nM.

What about the neutralization IC90 [37] of the same substance?
Its neutralization IC90 is 21 nM.

And the neutralization IC50 [38]?
Its neutralization IC50 is 0.11 nM.

And the neutralization IC90 [38]?
The neutralization IC90 was 0.83 nM.

And the neutralization IC50 [39]?
The neutralization IC50 was 0.17 nM.

And the neutralization IC90 [39]?
Its neutralization IC90 is 1.6 nM.

What about the neutralization IC50 [40] of the same substance?
Its neutralization IC50 is 0.33 nM.

And the neutralization IC90 [40]?
The neutralization IC90 was 2.3 nM.

What about the neutralization IC50 [41] of the same substance?
Its neutralization IC50 is 0.33 nM.

And the neutralization IC90 [41]?
Its neutralization IC90 is 15 nM.
